Experimental data published in paper PMC3186216 (Biochemistry, 2010).

Target: T1, calnexin (dog (endogenous in MDCK), UniProt P24643 21-593)
T1 sequence (looked up): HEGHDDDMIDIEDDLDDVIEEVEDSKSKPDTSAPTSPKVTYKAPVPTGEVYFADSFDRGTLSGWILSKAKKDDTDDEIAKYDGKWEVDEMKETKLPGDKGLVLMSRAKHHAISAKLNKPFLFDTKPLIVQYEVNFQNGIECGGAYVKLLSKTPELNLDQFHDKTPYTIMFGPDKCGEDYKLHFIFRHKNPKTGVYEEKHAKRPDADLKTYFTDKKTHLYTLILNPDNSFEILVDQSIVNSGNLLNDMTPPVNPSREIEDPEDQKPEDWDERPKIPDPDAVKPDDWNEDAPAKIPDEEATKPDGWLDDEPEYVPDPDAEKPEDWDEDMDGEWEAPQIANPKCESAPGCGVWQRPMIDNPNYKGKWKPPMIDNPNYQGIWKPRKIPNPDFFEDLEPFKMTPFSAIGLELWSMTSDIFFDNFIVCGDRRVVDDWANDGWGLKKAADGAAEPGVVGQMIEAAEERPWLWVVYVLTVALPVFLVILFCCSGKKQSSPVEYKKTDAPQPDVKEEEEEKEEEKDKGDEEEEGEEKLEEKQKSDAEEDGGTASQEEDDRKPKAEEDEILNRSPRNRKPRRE
Experiment: co-IP

B1: YFP-linked Na,K-ATPase β2 subunit (human), wild type (natural protein, UniProt P14415 1-290, looked up)
chain: MVIQKEKKSCGQVVEEWKEFVWNPRTHQFMGRTGTSWAFILLFYLVFYGFLTAMFTLTMWVMLQTVSDHTPKYQDRLATPGLMIRPKTENLDVIVNVSDTESWDQHVQKLNKFLEPYNDSIQAQKNDVCRPGRYYEQPDNGVLNYPKRACQFNRTQLGNCSGIGDSTHYGYSTGQPCVFIKMNRVINFYAGANQSMNVTCAGKRDEDAENLGNFVMFPANGNIDLMYFPYYGKKFHVNYTQPLVAVKFLNVTPNVEVNVECRINAANIATDDERDKFAGRVAFKLRINKT
modifications: N-glycans at all eight N-glycosylation sites; only the high-mannose form coprecipitated with calnexin
normalised amount coprecipitated, fold of that of YFP-β1: ~7 fold
